These results are taken from publication PMC11250841.

Assay [1] concerns the target T1, Thymic stromal lymphopoietin receptor (TSLPR) (human (endogenous in primary keratinocytes)) (UniProt Q9HC73).
T1 sequence: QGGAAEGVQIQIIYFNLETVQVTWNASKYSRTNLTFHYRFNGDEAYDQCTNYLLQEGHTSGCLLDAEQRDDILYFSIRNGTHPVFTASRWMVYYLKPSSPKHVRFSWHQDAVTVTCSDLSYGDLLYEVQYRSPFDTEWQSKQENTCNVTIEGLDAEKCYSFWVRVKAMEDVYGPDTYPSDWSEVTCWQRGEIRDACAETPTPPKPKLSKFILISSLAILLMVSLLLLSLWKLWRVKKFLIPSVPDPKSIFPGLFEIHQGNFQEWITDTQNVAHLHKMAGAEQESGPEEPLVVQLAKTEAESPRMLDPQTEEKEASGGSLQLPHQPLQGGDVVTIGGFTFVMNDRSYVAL

Assay [2] has as its target T1, Thymic stromal lymphopoietin receptor (TSLPR) (human (endogenous in primary keratinocytes)). The source holds these as a separate data set.

In assay [1], “Thymic stromal lymphopoietin (TSLP), human recombinant (from UniProt Q969D9 29-159) (ligand)” had an inhibition by the small molecule BP79 of TSLP-induced IL-4 release from HuT78 cells (ELISA, 36 h), concentration series up to 20 µM of 60% and an inhibition by the small molecule BP79 of TSLP-induced IL-13 release from HuT78 cells (ELISA, 36 h), concentration series up to 20 µM of 80%. Moreover, the inhibition by the small molecule BP79 of TSLP-induced IL-4/IL-13 expression in primary human CD4+ T cells (ELISA, 36 h), dose-response, at 10 µM and 20 µM in assay [2] is above 80%.
